Experiment [1] concerns the target T1, Recombinant receptor-binding motif (RBM, residues 437-508) of SARS-CoV-2 spike (S) protein with N-terminal … (SARS-CoV-2, UniProt P0DTC2 437-508).
The target in experiment [2] is T1, Recombinant receptor-binding motif …. The source holds these as a separate data set.
Another experiment addresses T2, TN.
T2 single chain: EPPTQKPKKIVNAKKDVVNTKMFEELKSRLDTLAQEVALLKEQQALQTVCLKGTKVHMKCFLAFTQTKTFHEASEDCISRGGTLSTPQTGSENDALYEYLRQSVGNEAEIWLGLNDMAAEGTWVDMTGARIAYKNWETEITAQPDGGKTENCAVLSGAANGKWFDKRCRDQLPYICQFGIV

The target of experiment [3] is T1, Recombinant receptor-binding motif …. The source holds these as a separate data set.

Where two headings read alike, the source gives them in different places.

B1: Clone 27B12 (mAb8) (antibody, V domains shown)
VH: DVKLVESGGGLVKLGGSLKLSCAASGFTFSTDYMSWVRQSPEKRLELVAAINSNGGTTYYPDTVKGRFIISRDNAKNTLYLQMSSLRSEDTALYYCARQVKNGLDYWGQGTSVTVSS
VL: DIQMTQTTSSLSASLGDRVTISCRASQDISNYLNWYQQKPDGTVKLLIYKTSRLHSGVPSRFRGSGSGTDYSLTISNLEEEDVATYFCQQGNTLPPTFGGGTKLEIK
A word on the Kd: it is the constant that tells how readily two partners part at equilibrium. Take B1: the Kd was determined as 17.4 nM in experiment [1], 57.4 nM in experiment [2], 2.02 nM in the experiment with TN and 17.4 nM in experiment [3].

B2: 23F6 (mAb5) (antibody, V domains shown)
VH: DVKLVESGGGLVKLGGSLKLSCAASGFTFSSSYMSWVRQTPEKRLELVAAINNNGGTTYYPDTVKGRFTISRDNAKNTLYLQMSSLKSEDTALYYCTRQGKNGLDYWGQGTSVTVSS
VL: DIQMTQTTSSLSASLGDRVTISCRASQDIGNLLNWYQQKPDGTVKLLISYTSRLHSGVPSRFSGSGSGTDYSLTITNLEQEDIATYFCQQANTLPPTFGGGSKLEIK
Consider B2, for which binding with TN was put at a Kd of 8.03 nM.

B3: Clone 25B2 (mAb6) (antibody, V domains shown)
VH: DVNLVESGGGLVKLGGSLKLSCADSGFTFSSYYMSWVRQTPEKRLELVAAINSNGGRTYYPDTVKGRFTISRDNAKNTLYLQMSSLKSEDTALYYCARQGKNGLDYWGQGTSVTVSS
VL: DIQMTQTTSSLSASLGDRVTISCRASQDISNHLNWYQQKPDGTIKLLIYYTSRLHSGVPSRFSGSGSGTDFSLSISNLEQEDIATYFCQQGKTLPPTFGGGTKLEIK
As to B3, the Kd in experiment [1] turned out to be 180 nM; with TN, 0.915 nM; in experiment [3], 180 nM.

B4: Clone 18B1 (mAb2) (antibody, V domains shown)
VH: DVKLVESGGGLVNLGGSLKLSCAASGFTFSSDYMSWVRQIPEKRLELVAAINSNGGTTYYPDTVKGRFTISRDNAKNTLYLQMSSLKSEDTALYYCARQGKNGMDYWGQGTSVTVSS
VL: DIQMTQTTSSLSASLGDRVTISCRASQDISNHLNWYQQRPDGTVKLLIYYTSRLHSGVPSRFSGSGSGTDYSFTITNLDQEDIATYFCQQGKTLPPTFGGGTKLEIK
In the case of B4, the Kd in experiment [1] worked out at 62.8 nM; with TN, 0.114 nM; in experiment [3], 62.8 nM.

The values are drawn from patent publication US20230287090A1 (FEINSTEIN INSTITUTES FOR MEDICAL RESEARCH, published 2023).
